Source: PMC2635894 (Biochemistry, 2008)
Where a chain is given by its changes, count along the chain named. coumarin = not defined here

T1: HDAC8 (histone deacetylase 8) (Homo sapiens, UniProt Q9BY41, D101N)
T1 sequence (Q9BY41 1-377 D101N): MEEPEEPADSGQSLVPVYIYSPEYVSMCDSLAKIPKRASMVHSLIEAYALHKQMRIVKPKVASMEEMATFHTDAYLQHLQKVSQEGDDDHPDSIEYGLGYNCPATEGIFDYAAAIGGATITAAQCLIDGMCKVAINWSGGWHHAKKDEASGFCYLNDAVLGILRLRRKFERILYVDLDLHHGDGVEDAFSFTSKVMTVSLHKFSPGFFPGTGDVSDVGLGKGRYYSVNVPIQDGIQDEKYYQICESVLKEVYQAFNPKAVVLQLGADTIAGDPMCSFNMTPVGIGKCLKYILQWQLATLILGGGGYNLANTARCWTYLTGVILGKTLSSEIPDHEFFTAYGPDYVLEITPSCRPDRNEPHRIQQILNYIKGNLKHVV

T2: HDAC8 (histone deacetylase 8) (Homo sapiens, UniProt Q9BY41, D101A)
T2 sequence (Q9BY41 1-377 D101A): T1 sequence (Q9BY41 1-377 D101N) with N101A

T3: HDAC8 (histone deacetylase 8) (Homo sapiens, UniProt Q9BY41, D101E)
T3 sequence (Q9BY41 1-377 D101E): T1 sequence (Q9BY41 1-377 D101N) with N101E

T4: D101E HDAC8 (human histone deacetylase 8, D101E variant) (human, UniProt Q9BY41 1-377, D101E)
T4 sequence: T1 sequence (Q9BY41 1-377 D101N) with N101E

T5: D101L HDAC8 (human histone deacetylase 8, D101L variant) (human, UniProt Q9BY41 1-377, D101L)
T5 sequence: T1 sequence (Q9BY41 1-377 D101N) with N101L

T6: D101A HDAC8 (human histone deacetylase 8, D101A variant) (human, UniProt Q9BY41 1-377, D101A)
T6 sequence: T1 sequence (Q9BY41 1-377 D101N) with N101A

T7: D101N HDAC8 (human histone deacetylase 8, D101N variant) (human, UniProt Q9BY41 1-377, D101N)
T7 sequence: T1 sequence (Q9BY41 1-377 D101N)


Assays:
[1] = target: T1, HDAC8 (histone deacetylase 8); experiment: X-ray crystal structure; format: binding
[2] = target: T2, HDAC8 (histone deacetylase 8); experiment: X-ray crystal structure; format: binding
[3] = target: T3, HDAC8 (histone deacetylase 8); experiment: X-ray crystal structure; format: binding
[4] = target: T4, D101E HDAC8 (human histone deacetylase …); experiment: cell-based or functional assay
[5] = target: T5, D101L HDAC8 (human histone deacetylase …); experiment: cell-based or functional assay
[6] = target: T6, D101A HDAC8 (human histone deacetylase …); experiment: cell-based or functional assay
[7] = target: T7, D101N HDAC8 (human histone deacetylase …); experiment: cell-based or functional assay

Row | Molecule | X-ray crystal structure (2.65 Å) [1] | X-ray crystal structure (2.55 Å) [2] | X-ray crystal structure (2.85 Å) [3] | KM of deacetylation (Fluor de Lys assay, Co2+ enzyme, 25°C, pH 8.0) [4] | kcat/KM of deacetylation (Fluor de Lys assay, Co2+ enzyme, 25°C, pH 8.0) [4] | KM of deacetylation (Fluor de Lys assay, Co2+ enzyme, 25°C, pH 8.0) [5] | KM of deacetylation (Fluor de Lys assay, Co2+ enzyme, 25°C, pH 8.0) [6] | kcat/KM of deacetylation (Fluor de Lys assay, Co2+ enzyme, 25°C, pH 8.0) [6] | KM of deacetylation (Fluor de Lys assay, Co2+ enzyme, 25°C, pH 8.0) [7] | kcat/KM of deacetylation (Fluor de Lys assay, Co2+ enzyme, 25°C, pH 8.0) [7]
1 | CN(C)c1ccc(C(=O)NCCCCCCC(=O)NO)cc1 [M344, 4-(dimethylamino)-N-[7-(hydroxyamino)-7-oxoheptyl]-benzamide] | The alternate conformer is stabilized by a hydrogen bond interaction with N101 in D101N HDAC8 | Two conformations of the bound inhibitor are observed in the active sites of D101E, D101A and D101N HDACs | Two conformations of the bound inhibitor are observed in the active sites of D101E, D101A and D101N HDACs |  |  |  |  |  |  | 
2 | Ac-RHK(Ac)K(Ac)-coumarin (reading uncertain) [acetylated tetrapeptide substrate (N-acetyl-arginine-histidine-acetyllysine-acetyllysine-coumarin)] |  |  |  | 140 μM | 1100 M^−1s^−1 | > 1000 μM | > 1000 μM | 0.23 M^−1s^−1 | > 1000 μM | 0.23 M^−1s^−1
